From publication PMC2676423 (Molecular immunology, 2009)
“And” between values parts separate entries of the source, which are not always exact repeats. Equal entries are not always repeated.

What was measured:
[1] = target: feline CD134 (OX40) expressed on MCC cells (feline); assay: flow cytometry on cells
[2] = target: native, endogenously expressed feline CD134 on MYA-1 T cells (feline (endogenous in MYA-1)); assay: flow cytometry on cells
[3] = target: Fc-TNC-fCD134L (chicken | feline) (UniProt P10039); assay: non-reducing SDS-PAGE with immunoblot
[4] = target: human CD134 (OX40) expressed on MCC cells (human) (UniProt P43489); assay: flow cytometry on cells
[5] = target: the molecule itself; assay: non-reducing SDS-PAGE with immunoblot

Sequence of human CD134 (OX40) expressed on MCC cells (human) (P43489 29-277): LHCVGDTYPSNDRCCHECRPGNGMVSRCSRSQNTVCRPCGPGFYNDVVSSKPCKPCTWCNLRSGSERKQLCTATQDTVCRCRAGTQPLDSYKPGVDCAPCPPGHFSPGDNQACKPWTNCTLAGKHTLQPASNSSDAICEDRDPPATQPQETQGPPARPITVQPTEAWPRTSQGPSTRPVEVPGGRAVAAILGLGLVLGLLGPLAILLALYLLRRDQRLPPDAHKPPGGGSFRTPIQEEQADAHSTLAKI

Molecule	mean fluorescence intensity (MFI) [1]	percent of cells positive [1]	mean fluorescence intensity (MFI) [2]	percent of cells positive [2]	stoichiometry N [3]	mean fluorescence intensity (MFI) [4]	percent of cells positive [4]	stoichiometry N [5]
FLAG-TNC-fCD134L (from UniProt P10039 110-139) (ligand)	5	66.2%	3	44.9%	–	–	–	–
FLAG-mCD134L (FLAG-tagged murine CD134L) (from UniProt P43488 51-198) (ligand)	309	99.7%	12	86.5%	–	–	–	–
Fc-TNC-fCD134L (from UniProt P10039 110-139) (Fc fusion)	221	99.8%	14	82.4%	6	9.9	45.5%	–
Fc-TNC-mCD134L (from UniProt P10039 110-139; P43488 51-198) (Fc fusion)	300	99.8%	7	78.2%	–	–	–	–
Fc-TNC-hCD134L (Fc fusion, chicken | human) RSPQPQPKPQPKPEPEGSLHACGCAAAPDIKDLLSRLEELEGLVSSLREQGTGGGSGGRGLQVSHRYPRIQSIKVQFTEYKKEKGFILTSQKEDEIMKVQNNSVIINCDGFYLISLKGYFSQEVNISLHYQKDEEPLFQLKKVRSVNSLMVASLTYKDKVYLNVTTDNTSLDDFHVNGGELILIHQNPGEFCVL	–	–	–	–	–	–	–	2 and 6
Fc-TNC-mCD134L (Fc fusion, chicken | mouse) RSPQPQPKPQPKPEPEGSLHACGCAAAPDIKDLLSRLEELEGLVSSLREQGTGGGSGGRGLQSSSPAKDPPIQRLRGAVTRCEDGQLFISSYKNEYQTMEVQNNSVVIKCDGLYIIYLKGSFFQEVKIDLHFREDHNPISIPMLNDGRRIVFTVVASLAFKDKVYLTVNAPDTLCEHLQINDGELIVVQLTPGYCAPEGSYHSTVNQVPL	–	–	–	–	–	–	–	6
